Values quoted from earlier work as cited in publication PMC3078979.

Biological target: Gamide (amidated gastrin) (Homo sapiens) (UniProt P01350)
Assay: ultracentrifugation

Kd: 6.4 µM
Substance: apo-transferrin (from UniProt P02787)
